Legend:
[1] = target: recombinant human pro-HGF, P14210
[2] = target: prekallikrein purified from human plasma, P03952
[3] = target: T1, full-length coagulation factor XII purified from human plasma, P00748
T1 chain: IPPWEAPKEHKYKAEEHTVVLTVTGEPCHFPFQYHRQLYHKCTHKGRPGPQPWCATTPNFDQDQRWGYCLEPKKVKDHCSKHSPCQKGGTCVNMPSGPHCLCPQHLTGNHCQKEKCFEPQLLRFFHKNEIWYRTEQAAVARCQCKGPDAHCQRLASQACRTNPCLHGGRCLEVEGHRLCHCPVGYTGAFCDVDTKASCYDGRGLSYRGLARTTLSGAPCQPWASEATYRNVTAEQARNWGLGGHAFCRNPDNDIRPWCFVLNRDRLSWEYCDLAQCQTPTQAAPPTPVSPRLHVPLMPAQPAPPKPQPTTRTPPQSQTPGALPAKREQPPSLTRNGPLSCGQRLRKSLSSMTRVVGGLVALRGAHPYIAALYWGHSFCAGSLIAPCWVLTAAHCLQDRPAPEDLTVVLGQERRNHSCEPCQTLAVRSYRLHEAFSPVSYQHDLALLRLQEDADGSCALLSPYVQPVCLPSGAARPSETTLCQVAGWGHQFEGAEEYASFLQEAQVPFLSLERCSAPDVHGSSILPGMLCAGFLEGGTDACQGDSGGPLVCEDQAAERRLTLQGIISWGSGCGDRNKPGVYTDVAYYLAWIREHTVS

recombinant human pro-HGF, P14210, sequence (P14210 32-728): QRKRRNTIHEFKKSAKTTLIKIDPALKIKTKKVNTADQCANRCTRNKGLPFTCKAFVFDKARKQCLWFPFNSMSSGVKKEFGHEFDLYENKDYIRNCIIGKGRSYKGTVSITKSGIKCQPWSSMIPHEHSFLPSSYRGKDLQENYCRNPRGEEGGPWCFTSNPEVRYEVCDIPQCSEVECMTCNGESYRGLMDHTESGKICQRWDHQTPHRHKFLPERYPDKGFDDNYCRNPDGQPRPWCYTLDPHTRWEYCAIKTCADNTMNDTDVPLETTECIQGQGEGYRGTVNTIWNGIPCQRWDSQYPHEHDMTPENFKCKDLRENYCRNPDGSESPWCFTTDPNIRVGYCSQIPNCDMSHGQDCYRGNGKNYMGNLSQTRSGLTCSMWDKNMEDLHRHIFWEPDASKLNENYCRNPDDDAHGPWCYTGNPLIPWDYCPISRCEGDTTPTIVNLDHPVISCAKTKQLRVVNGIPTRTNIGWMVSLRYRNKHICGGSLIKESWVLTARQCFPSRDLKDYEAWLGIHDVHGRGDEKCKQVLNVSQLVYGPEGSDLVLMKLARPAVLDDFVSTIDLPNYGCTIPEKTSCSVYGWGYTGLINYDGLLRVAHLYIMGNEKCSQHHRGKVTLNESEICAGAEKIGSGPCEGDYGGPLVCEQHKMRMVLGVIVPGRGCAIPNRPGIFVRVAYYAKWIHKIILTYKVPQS
prekallikrein purified from human plasma, P03952, sequence (P03952 20-638): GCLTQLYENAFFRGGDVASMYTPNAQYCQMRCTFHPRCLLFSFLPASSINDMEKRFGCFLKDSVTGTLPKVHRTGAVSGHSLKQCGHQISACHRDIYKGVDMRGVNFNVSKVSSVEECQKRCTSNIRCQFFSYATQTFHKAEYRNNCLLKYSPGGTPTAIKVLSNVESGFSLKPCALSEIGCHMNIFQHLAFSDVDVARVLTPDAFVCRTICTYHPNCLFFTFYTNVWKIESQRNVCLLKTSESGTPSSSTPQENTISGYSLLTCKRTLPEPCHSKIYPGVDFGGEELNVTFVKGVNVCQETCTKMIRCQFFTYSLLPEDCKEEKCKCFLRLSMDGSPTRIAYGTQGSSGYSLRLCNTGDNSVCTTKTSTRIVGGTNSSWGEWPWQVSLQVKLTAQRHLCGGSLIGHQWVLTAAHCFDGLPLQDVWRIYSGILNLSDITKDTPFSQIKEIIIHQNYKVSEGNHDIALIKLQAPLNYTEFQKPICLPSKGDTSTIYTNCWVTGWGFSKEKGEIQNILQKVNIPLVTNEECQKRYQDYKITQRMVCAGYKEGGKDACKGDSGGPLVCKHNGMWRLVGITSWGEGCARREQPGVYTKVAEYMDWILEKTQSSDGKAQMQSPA

B1: βFXIIa (protein)
chain: NGPLSCGQRLRKSLSSMTRVVGGLVALRGAHPYIAALYWGHSFCAGSLIAPCWVLTAAHCLQDRPAPEDLTVVLGQERRNHSCEPCQTLAVRSYRLHEAFSPVSYQHDLALLRLQEDADGSCALLSPYVQPVCLPSGAARPSETTLCQVAGWGHQFEGAEEYASFLQEAQVPFLSLERCSAPDVHGSSILPGMLCAGFLEGGTDACQGDSGGPLVCEDQAAERRLTLQGIISWGSGCGDRNKPGVYTDVAYYLAWIREHTVS
- cleavage of pro-HGF, western blot [1]: We confirmed the ability of hepatocyte growth factor activator (HGFA) and βFXIIa to cleave pro-HGF

B2: recombinant human hepatocyte growth factor activator (protein)
chain: QPGGNRTESPEPNATATPAIPTILVTSVTSETPATSAPEAEGPQSGGLPPPPRAVPSSSSPQAQALTEDGRPCRFPFRYGGRMLHACTSEGSAHRKWCATTHNYDRDRAWGYCVEATPPPGGPAALDPCASGPCLNGGSCSNTQDPQSYHCSCPRAFTGKDCGTEKCFDETRYEYLEGGDRWARVRQGHVEQCECFGGRTWCEGTRHTACLSSPCLNGGTCHLIVATGTTVCACPPGFAGRLCNIEPDERCFLGNGTGYRGVASTSASGLSCLAWNSDLLYQELHVDSVGAAALLGLGPHAYCRNPDNDERPWCYVVKDSALSWEYCRLEACESLTRVQLSPDLLATLPEPASPGRQACGRRHKKRTFLRPRIIGGSSSLPGSHPWLAAIYIGDSFCAGSLVHTCWVVSAAHCFSHSPPRDSVSVVLGQHFFNRTTDVTQTFGIEKYIPYTLYSVFNPSDHDLVLIRLKKKGDRCATRSQFVQPICLPEPGSTFPAGHKCQIAGWGHLDENVSGYSSSLREALVPLVADHKCSSPEVYGADISPNMLCAGYFDCKSDACQGDSGGPLACEKNGVAYLYGIISWGDGCGRLHKPGVYTRVANYVDWINDRIRPPRRLVAPS
- cleavage of pro-HGF, western blot [1]: We confirmed the ability of hepatocyte growth factor activator (HGFA) and βFXIIa to cleave pro-HGF

B3: two-chain tissue plasminogen activator (protein)
chain: SYQVICRDEKTQMIYQQHQSWLRPVLRSNRVEYCWCNSGRAQCHSVPVKSCSEPRCFNGGTCQQALYFSDFVCQCPEGFAGKCCEIDTRATCYEDQGISYRGTWSTAESGAECTNWNSSALAQKPYSGRRPDAIRLGLGNHNYCRNPDRDSKPWCYVFKAGKYSSEFCSTPACSEGNSDCYFGNGSAYRGTHSLTESGASCLPWNSMILIGKVYTAQNPSAQALGLGKHNYCRNPDGDAKPWCHVLKNRRLTWEYCDVPSCSTCGLRQYSQPQFRIKGGLFADIASHPWQAAIFAKHRRSPGERFLCGGILISSCWILSAAHCFQERFPPHHLTVILGRTYRVVPGEEEQKFEVEKYIVHKEFDDDTYDNDIALLQLKSDSSRCAQESSVVRTVCLPPADLQLPDWTECELSGYGKHEALSPFYSERLKEAHVRLYPSSRCTSQHLLNRTVTDNMLCAGDTRSGGPQANLHDACQGDSGGPLVCLNDGRMTLVGIISWGLGCGQKDVPGVYTKVTNYLDWIRDNMRP
- cleavage of pro-HGF, western blot [1]: other serine proteases found in the brain such as thrombin and tissue plasminogen activator did not convert pro-HGF to HGF

B4: kallikrein-activated FXII (protein)
chain: T1 chain
- cleavage of pro-HGF (25 ug/mL) by kallikrein-activated FXII (50 nM), western blot [1]: Pro-HGF was cleaved by kallikrein-activated FXII297-596 and kallikrein-activated FXII (arrows), but not by inactivated kallikrein alone

B5: kallikrein-activated FXII297-596 (protein)
chain: MPAQPAPPKPQPTTRTPPQSQTPGALPAKREQPPSLTRNGPLSCGQRLRKSLSSMTRVVGGLVALRGAHPYIAALYWGHSFCAGSLIAPCWVLTAAHCLQDRPAPEDLTVVLGQERRNHSCEPCQTLAVRSYRLHEAFSPVSYQHDLALLRLQEDADGSCALLSPYVQPVCLPSGAARPSETTLCQVAGWGHQFEGAEEYASFLQEAQVPFLSLERCSAPDVHGSSILPGMLCAGFLEGGTDACQGDSGGPLVCEDQAAERRLTLQGIISWGSGCGDRNKPGVYTDVAYYLAWIREHTVS
- cleavage of pro-HGF (25 ug/mL) by activated FXII297-596 (225 nM), western blot with anti-HGF [1]: kallikrein-activated FXII297-596 cleaved pro-HGF to the active two-chain form
- cleavage of prekallikrein (200 nM) by activated FXII297-596 (225 nM), western blot for kallikrein heavy chain [2]: activated FXII297-596 converted prekallikrein to kallikrein as seen through the generation of kallikrein heavy chain

B6: recombinant human FXII297-596 (protein)
chain: B5 chain
- cleavage of prekallikrein, western blot [2]: no cleavage of prekallikrein was observed with non-activated FXII297-596

B7: cathepsin K (protein)
chain: APDSVDYRKKGYVTPVKNQGQCGSCWAFSSVGALEGQLKKKTGKLLNLSPQNLVDCVSENDGCGGGYMTNAFQYVQKNRGIDSEDAYPYVGQEESCMYNPTGKAAKCRGYREIPEGNEKALKRAVARVGPVSVAIDASLTSFQFYSKGVYYDESCNSDNLNHAVLAVGYGIQKGNKHWIIKNSWGENWGNKGYILMARNKNNACGIANLASFPKM
- cleavage of FXII (1.25 uM) by cathepsin K (100 nM), non-reducing SDS-PAGE with Coomassie staining [3]: incubation of full-length FXII with cathepsin K generated stable FXII fragments with sizes supporting cleavage between L296 and M297

Source: patent US20200315149
